Here are results for 15 molecules from publication PMC8857482.

T1: Csy complex (type I-F surveillance complex: Cas8f, Cas5f, Cas7f, Cas6f + crRNA) (Pseudomonas aeruginosa, UniProt Q02ML9;Q02MM0;Q02MM1;Q02MM2 1-434;1-327;1-342;1-187)
T1 sequence 1: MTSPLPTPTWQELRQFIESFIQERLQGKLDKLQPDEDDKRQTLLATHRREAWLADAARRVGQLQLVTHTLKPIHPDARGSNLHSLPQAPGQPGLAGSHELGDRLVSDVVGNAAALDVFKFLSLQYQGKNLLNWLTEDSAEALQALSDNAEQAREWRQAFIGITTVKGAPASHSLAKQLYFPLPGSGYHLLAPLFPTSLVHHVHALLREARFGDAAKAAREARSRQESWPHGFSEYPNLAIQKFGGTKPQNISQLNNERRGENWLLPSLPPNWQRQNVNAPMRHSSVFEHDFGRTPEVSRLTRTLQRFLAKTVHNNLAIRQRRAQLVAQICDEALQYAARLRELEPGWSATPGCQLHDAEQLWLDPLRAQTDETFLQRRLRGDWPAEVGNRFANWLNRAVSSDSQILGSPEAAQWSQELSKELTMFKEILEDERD
T1 sequence 2: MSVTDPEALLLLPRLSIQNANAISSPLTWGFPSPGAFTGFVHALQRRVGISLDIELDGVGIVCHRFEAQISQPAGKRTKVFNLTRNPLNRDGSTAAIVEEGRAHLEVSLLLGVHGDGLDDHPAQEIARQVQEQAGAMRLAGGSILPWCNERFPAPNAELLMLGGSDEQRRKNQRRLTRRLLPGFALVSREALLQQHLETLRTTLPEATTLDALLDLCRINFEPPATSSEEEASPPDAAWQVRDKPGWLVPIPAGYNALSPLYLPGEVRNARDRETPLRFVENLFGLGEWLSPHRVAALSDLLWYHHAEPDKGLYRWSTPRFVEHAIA
T1 sequence 3: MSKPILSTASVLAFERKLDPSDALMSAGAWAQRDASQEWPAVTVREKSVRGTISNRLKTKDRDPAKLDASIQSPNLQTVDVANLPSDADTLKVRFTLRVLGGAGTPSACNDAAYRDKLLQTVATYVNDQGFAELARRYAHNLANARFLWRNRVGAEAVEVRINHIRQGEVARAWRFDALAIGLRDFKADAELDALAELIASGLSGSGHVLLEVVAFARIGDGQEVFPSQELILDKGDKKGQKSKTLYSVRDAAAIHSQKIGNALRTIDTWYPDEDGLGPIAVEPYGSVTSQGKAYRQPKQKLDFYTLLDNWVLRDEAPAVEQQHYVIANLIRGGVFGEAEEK
T1 sequence 4: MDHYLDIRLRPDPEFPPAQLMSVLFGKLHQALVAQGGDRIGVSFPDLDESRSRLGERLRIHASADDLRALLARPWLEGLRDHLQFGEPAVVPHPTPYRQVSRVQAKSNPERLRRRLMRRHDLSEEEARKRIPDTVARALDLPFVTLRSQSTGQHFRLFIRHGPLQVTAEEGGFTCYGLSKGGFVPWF

B1: 54 bp target dsDNA (dsDNA)
DNA 1: GGAAGCCATCCAGGTAGACGCGGACATCAAGCCCGCCGTGAAGGTGCAGCTGCT
DNA 2: AGCAGCTGCACCTTCACGGCGGGCTTGATGTCCGCGTCTACCTGGATGGCTTCC

One data set deals with T1, Csy complex (type I-F surveillance …). In words: EMSA.
Turning to B1, the binding result is on record as “binds”.

The next data set addresses Csy complex with Cas7f (K58A/K60A) (Pseudomonas aeruginosa) (UniProt Q02ML9). In words: MST.
AcrIF13 (natural protein) displayed a Kd of 34.2 nM.

A further data set addresses Csy complex with Cas8f (N250D) (Pseudomonas aeruginosa) (UniProt Q02ML9). The experiment in a line: MST.
For AcrIF13 (natural protein), the Kd amounted to 647 nM.

The target of another data set is type I-F CRISPR-Cas surveillance complex (Csy complex) (Pseudomonas aeruginosa) (UniProt Q02ML9). In words: MST.
Molecule AcrIF13 E57K (natural protein) came in with a Kd of 5.39 nM. This counts as single-digit nanomolar.

For the molecule “AcrIF13 E82K/E83K/D84K (natural protein)”, the dissociation constant Kd was 7.22 nM. On the same count and under the same terms, as for AcrIF13 E97K (natural protein), the figure is 14.3 nM.

AcrIF13 D113K (natural protein) came in with an equilibrium dissociation constant (Kd) of 67.7 nM. The same measure, in the same setting: under AcrIF13 D43K/D44K (natural protein) stands 1.85 nM; under AcrIF13 D63K (natural protein), 24.6 nM; under AcrIF13 E10K (natural protein), 22.3 nM. On the same count and under the same terms, under AcrIF13 E40K (natural protein) stands 5.17 nM; under AcrIF13 D102K (natural protein), 9.21 nM.

The molecule AcrIF13 (natural protein) displayed a Kd of 1.51 nM.

Consider AcrIF13 D45K/D46K (natural protein), for which the Kd amounted to 6.22 nM. This Kd is about 4.1-fold higher than that of the molecule before.

Take AcrIF13 E18K (natural protein): the Kd is 2.55 nM. For AcrIF13 E50K (natural protein), the Kd is 18.1 nM.

Take AcrIF13 D21K/E22K (natural protein): the equilibrium dissociation constant (Kd) turned out to be 29.8 nM.
